B1: TPR t1 (parent)
chain: GACCAAUCUGCCCUCAGAGCUCGAGAACAUCUUCGGAUGCAGAGGAGGCAGGCUUCGGUGGCGCGAUAGCGCCAACGUCCUCAACCUCCAAUGCAUCCCACCACAUGAUGAUGCCUGAAGAGCCUUGGUUUUUUG

Variants of: B1
Assay: polymerase ribozyme fitness, log enrichment relative to wild type (log ratio); higher = more active; in vitro selection for triplet polymerase activity
Summary of the method: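 Libraries of mutants in each subunit of a heterodimeric triplet polymerase ribozyme were generated by PCR and transcribed. In triplicate, each went through one in vitro selection round: annealing with biotinylated primer, partner subunit and triplets; frozen incubation at −7 °C; gel excision of extended constructs; streptavidin-bead capture; RT-PCR. Fitness, taken from Illumina sequencing of input and output libraries, is the logarithm of a genotype's enrichment over wild-type enrichment, averaged across replicates with inverse-variance weights. The logarithm is base 2, and genotypes needed ≥10 input reads and ≥1 read per output to be kept.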

Variant | polymerase ribozyme fitness (log ratio)
GACCAAUCUGCCCUCAGAGCUCGAGAACAUCUUCGGAUGCAGAGGAGGCAGGCUUCGGUGGCGCGAUAGCACCAACGUCCUCAACCUCCAAUGCAUCCCACCACAUGAUGAUGUCUGAAGAGCCUUUGUUUUUUG [G71A C114U G127U] | -5.52
GACCAAUCUGCCCUCAGAGCUCGAGAACAUCUUCGGAUGCAGAGGAGGCAGGCUUAGGUGGCGCGAUAGCGCCAACGUCCUCAACCGCCAAUGCAUCCCACCACAUGAUGAUUCCUGAAGAGCCUUGGUUUUUUG [C56A U87G G113U] | -3.92
GACCAAUCUGUCCUCAGAGCUCGAGAACAUCUUCGGAUGCAGAGGAGGCAGGCUUCGGUGGCGCGAUAGCGCCAACGUCCUCAACCUCCAAUGCAUCCCACCACAUGAUGAUGCCUGAAGAGCCUUUGUUUUUUG [C11U G127U] | -2
GACCAAUCUGCCCUCAGAGCUCGAGAACAUCUUCGGAUGCACAGGAGGCAGGCUUCGGUGACGCGAUAGCGCCAACGUCCUCAACCUCCAAUGCAUCCCACCACAUGAUGAUGCCUGAAGCGCCUUGGUUUUGUG [G42C G61A A121C U133G] | 0.579
GACCAAUCUGCCCUCAGAGCUCGAGAACAUCUUCGGAUGCAGAGGAGGCAGGCUUCGGUGGCGCGAUAGCGCCAACGUCUUCAACCUCCAAUGCAUCCCACCACAUGAUGAUGCCUGAAUAGCCUUGGGUUUUUG [C80U G120U U129G] | -0.816
GACCAAUCUGCCCUCAGAGCUCGAGAACAUCUUCGGAUGCAGAGGAGGCAGGCCUCGGUGGCGCGAUAGCGCCAACGUCCUCAACCUCCAAUGCAUCCCACCACAUGAUGAUGCCAGAAGAGCCUUGGUUCUUUG [U54C U116A U131C] | -3.16
GACCAAUCUGCCCUCAGAGCUCGAGAACAUCUUCGGAUGCAGAGGAGGCAGGCUUCGGUGGCGCGAUAGCGCCAACGUCCUCAACCUCCAAUACAUCCCACCACAUGAUGAUGCCUGAAGAGCCUUGAUUUUUUG [G93A G128A] | -1.95
GACCAAUCUGCCCUCAGAGCUCGAGAACAUCUUCGGAUGCAGUAGAGGCAGGCUUCGGUGGCGCGAUAGCGCCAAGGUCCUCAACCUCCAAUGCAUCCCACCACAUGAUGCUGCCUGAAGAGCCUUGGUUUUUUG [A43U G44A C76G A111C] | -2.36
GACCAAUCUGCCCUCAGAGCUCGAGAACAUCUUCGGAUGCAGACGAGGCAGGCUUCGGUGGCGCGAUAGCGCCUACGUCCUCAACCUCCAAUGCAUCCCACCACAUGAUGAUGCCUGAAGAGCCUUGGUUUUUUG [G44C A74U] | -1.2
GACCAAUCUGCCCUCAGAGCUCGAGAACAUCUUCGGAUGCAGAGGAGGCUCGCUUCGGUGGCGCGAUAGCGCUAACGUCCUCAACCUCCAAUGCAUCCCACCACAUGAUGAUGCCUGAAGAGCCUUGGUUUUUUG [A50U G51C C73U] | -3.52
GACCAAUCUGCCCUCAGAGCUCGAGAACAUCUUCGGAUGCAGAGGAGGCAGUCUUCGGUGUCGCGAUAGCGCCAACGUCCUCAACCUCCAAUGCAUCCCACCACAUGAUGAUGCCUGAAGAGCCUUGGUUUUUUG [G52U G61U] | -0.708
GACCAAUCUGCCCUCAGAGCUCGAGAACAUCUUCGGAUGCAGAGGAGGCUGGCUUCGGUGGCGCGAUAGCGCCAACGUCCUCAGCCUCCAAUGCAUCCCACCACAUGAUGAUGCCUGAAGAGCCUUGGUUUUUUG [A50U A84G] | -3.04
GACCAAUCUGCCCUCAGAGCUCGAGAACAUCUUCGGAUGCAGAGGAGGCAGGCUUCGGUGGCGCGAUAGCUCCAACGUCCUCAACCUCCAAUGCAUCCCACCACAUGAUGAUGCCUGAAGAGCCUUGGAUUUUUG [G71U U129A] | -1.8
GACCAAUUUGCCCUCAGAGCUCGAGAACAUCUUCGGAUGCAGAGGAGGCAGGCUUCGGUGGCGCGAUAGCGCCAACGUCCUCAACCUCCAAUGCAUCCCACCACAUGAUGAUCCCUGAAGAGCCUUGGUUUUUUG [C8U G113C] | -1.19
GACCAAUCUGCCCUCAGAGCUCGAGAACAUCUUCGGAUGGAGAGGAGGCAGGCUUCGGUGGCGCGAUAGCGCCAACGUCCUCAACCUCCAAAGCAUCCCACCACAUGAUGAUGCCUGAAGAGCCUUGGUUUUUUG [C40G U92A] | -3.01
GACCAAUCUGCCGUCAGAGCUCGAGAACAUCUUCGGAUGCAGAGGAGGCAGGCCUCGGUGGCGCGAUAGCGCCAACGUCCUCAAUCCCCAAUGCAUCCCACCACAUGAUGAUGCCUGAAGAGCCUUGGUUUUUUG [C13G U54C C85U U87C] | -1.99
GUCCAAUCUGCCCUCAGAGCUCGAGAACAUCUUCGGAUGCAGAGGAGGCAGGGUUCGGUGGCGCGAUAGCGCCAACGUCCUCAACCUGCAAUGCAUCCCACCACAUGAUGAUGCCUGAAGAGCCUUGGUUUUUUG [A2U C53G C88G] | -3.42
GACCAAUCUCCCCUCAGAGCUCGAGAACAUCUUCGGAUGCAGAGGAGGCAGGCUUCGGUGGCGCGAUAGCACCAACGUCCUCAACCUCCAAUGCAUCCCACCACAUGAUGAUCCCUGAAGAGCCUUGGUUUUUUG [G10C G71A G113C] | -4.81
GACCAAUCUGCCUUCAGAGCUCGAGAACAUCUUCGGAUGUAGUGGAGGCAGGCUUCGGUGGCGCGAUAGCGGCAACGUCCUCAGCCUCGAAUGCAUCCCACCACAUGAUGAUGCCUGAAGAGCCUUGGUUUUUUG [C13U C40U A43U C72G A84G C89G] | -6.24
GACCAAUCUGCCCUCAGAGCUCGAGAACAUCUUCGGAUGCUGAAGAGGCAGGCUUCGGUGGCGCGAUAGCGCCAACGUCCUCAACCUCCAAUGCAUCCCACCACAUGAUGAUGCCUGAAGAGCCUUGGUUUUUUG [A41U G44A] | -2.2
GACCAAUCUGCCCUCAGAGCUCGAGAACAUCUUCGGAUGCAGAGGAGGCAGGCUUCGGUGGCGCGAUCGCGCCAACGUCCUCAUCCUCCAAUGCAUCCCACCACAUGAUGAGGCCUCAAGAGCCUUGGUUUUUUG [A68C A84U U112G G117C] | -7.28

Variant | polymerase ribozyme fitness (log ratio)
GACCAAUCUGUCCUCAGAGCUCGAGAACAUCUUCGGAUGCACAGGAGGCAGGCUUCGGUGGCCCGAUAGCGCCAACGUCCUCAACCUCCAAUGCAUCCCACCACAUGAUGAUGCCUGAAGAGCCUUGGUGUUUUG [C11U G42C G63C U130G] | -3.61
GACCAAUCUGCCCUCAGAGCUCGAGAACAUCUUCGGAUGCAGAGGAGGCGGGCUUCGGUGGUGCGAUAUCGCCAACGUCAUCAACCUCCAAUGCAUCCCACCACAUGAUGAUGCCUGAAGAGCCUUGGUUUUUUG [A50G C62U G69U C80A] | -3.77
GACCAAUCUGCCCUCGGAGCUCGAGAACAUCUUCGGAUGCAGAGGAGGCAGGCUUCGGUGGCGCGAUAGAGCCAACGUCCUCAACCUCCAAUGCCUCCCACCACAUGAUGAUGCCUGAAGAGCCUUGGUUUUUUG [A16G C70A A95C] | -4.17
GACCAAUCUGCCCUCAGAGCUCGAGAACAUCUUCGGAUGCAGAGGAGGCAGGCUUCGGUGGCGCGAUAGCGCCAACGUCCUCAACCUGCAAUGCAUCCCACCACAUGAUGAUGCCUGAAGAGCCUUGGUUUUUUG [C88G] | -0.581
GACCAAUCUGCACUCAGAGCUCGAGAACAUCUUCGGAUGCAGAGGAGGCAGGCUACGGUGGCGCGAUAGCGCCAACGUCCUCAACCUCCAAUGCAUCCCACCACAUGAUGAUGCCUGAAGAACCUAGGUUUUUUG [C12A U55A G122A U126A] | -5.02
GACCACUCUGCCCUCAGAGCUCGAGAACAUCUUCGGAUGCCGAGGAGGCAGGCUUCGGUGGCGCGAUAGCGCCAACGUCCUCAACCUCCAAUGAAUCCCACCACAUGAUGAUGCCUGAAGAGCCUUGGGUUUUUG [A6C A41C C94A U129G] | -4.39
GACCAAUCUGCCCUCAGAGCUCGAGAACAUCUUCGGAUGCCGAGGAGGCAGGCUUCGGUGGCGCGAUAGCGCCGACGUCCUCAACCUCCAAUGCAUCUCACCACAUGAUGAUGCCUGAAGAGCCUUGGUUUUUUG [A41C A74G C98U] | -1.89
GACCAAUCUGCGCUCAGUGCUCGAGAACAUCUUCGGAUGCAGAGGAGGCAUGCUUCGGUGGCGCGAUAGCGCCGACGUCCUCAACAUCCAAUGCAUCCCACCACAUGAUGAUGCCUGAAGAGCAUUGGUUUUUUG [C12G A18U G51U A74G C86A C124A] | -6.6
GACCAAUCUGCCUUCAGAGCUCGAGAACAUCUUCGGAUGCAGAGGAGGCAGGCUUCGGUAGCGCGAUAGCGCCAACGUCCUCAACCUCCAAUGCAUCCCACCACAUGAUGAUGCCUGAAGAGCCUUGGUUUUUUG [C13U G60A] | 0.0451
GACCAAUCUGCCCUCAGAGCUCGAGAACAUCUUCGGAUGCAGAGGAGGCAGGCUUCGGUGGCGCGAUAGCGCCAACGUCCUCAACCUACAAUGCAUCCCAUCACAUGAUGAUGCCUGAAGAGCCUUGGUUUUUUG [C88A C101U] | -0.505
GACCAAUCUGCCCUCAGAGCUCGAGAACAUCUUCGGAUGCAAAGGAGGCAGGCUUGGGUGGCGCGAUAGCGCCAACGUCCUCAAGCUCCAAUACAUCCCACCACAUGAUGAUGCCUGAACAGCCUUGGUUUUUUG [G42A C56G C85G G93A G120C] | -3.01
GACCAAUCUGCACUCAGAGCUCGAGAACUUCUUCGGAUGCAGAGGAGGCAGGCUUCGGUGGCGCGAUAGCGCCAACGUCCUCAACCUCCAAUUCAUCCCACCACAUGAUGAUGCCUGAAGAGCCUUGGUUUUUUG [C12A A29U G93U] | -2.79
GACCAAUCUGCCCUCAGAGCUCGAGAACAUCUUCGGAUGCAGAGGAGGCAGGCUUCGGUGGCGCGAUAGCGCCAACGCCCUCAACCUCCAAUGCAUCCCACCACAUGAUGAUGCCUUAAGAGCCUUGCUUUUUUC [U78C G117U G128C G135C] | -6.04
GACCAAUCUGCCCUCAGAGCUCGAGAACAUCUUCGGAUGCAGAGGAGACAGGCUUCGGUAGCGCGAUAGCGCCAACGCCCUCAACCUCCAAUGCAUCCCACCACAUGAAUAUGCCUGAAGAGCCUUGGUUUUUUG [G48A G60A U78C U109A G110U] | -4.9
GACCAAUCUGCCCUCAGAGCUCGAGAACAUCCUCGGAUGCAGAGGAGGCAGGCUUCGGUGGCGCGAUAGCGCCAAUGUCCUCAACCUCCUAUGCAUCCCACCACAUGAUGAUGCCUGAAGAGCCUUGGUUUUUUG [U32C C76U A90U] | -2.2
GACCAAUCUGCCCUCAGAGCUCGAGAACAUCUUCGGAUGCAGAGGAGGCAGGCUUCUGUGGCGCGAUAGCGUCAACGUCCUCUACCUCCAAUGCAUCCCACCACAUGAUGUUGCCUGAAGAGCCUUGGUUUUUUG [G57U C72U A83U A111U] | -4.12
GACCAAUCUGCCCUCAGAGAUCGAGAACAUCUUCGGAUGCAGAGCAGGCAGGCUUCGGUGGCGCGAUAGCGCCAACGUCCUCAACCUCCAAUGCAUCCCACCACAUGAUGAUGCCUGAAGAGCCUUGGUUUUUUG [C20A G45C] | -3.43
GACCAAUGUGCCCUCAGAGCUCGAGAACAUCUUCGGAUGGAGAGGAGGCAGGCUUCGGUGGCGCGAUAGCGCCAACGUCCGUAACCUCCAAUGCAUCCCACCACAUGAUGAUGCCUGAAGAGCCUUGGUUUUUUG [C8G C40G U81G C82U] | -0.759
GACCAAUCUGCCAUCAGAGCUCGAGAACAUCUUCGGAUGCAGAGGAGGCAGACUUCGGCGGCGCGAUAGCGCCAACGUCCUCAACCUCCAAUGCAUCCCACCACAUGAUGAUACCUGAAGAGCCUUGGUUUUUUG [C13A G52A U59C G113A] | -3.69
GACCAAUCUGCCCUCAGAGCUCGAGAACAUCUUCGGAUGCAGAGGAGGCAGGCUUCGGUGGCGCGAUAGCGGCAACGUCCUCGACCUCCAAUGCAUCCCACCACAUGAUGAUGCAUGAAGAGCCUUGGUUUUUUG [C72G A83G C115A] | -4.27
GACCAAUCUGCCCUCAGAGCUCGAGGACAUCUUCGGAUGCAGAGGAGGCAGGCUUCGGUGGCGCGAUAGCGCCAACGUCCUCAACCUCCAAUGCAUCCCACCACAUGAUGAUGCCUGAAGAGCCUUGGUAUUUUG [A26G U130A] | -3.31

Source: the RNAGym collection of RNA variant scans (doi:10.1073/pnas.2313332121)
